Results on five variants are retold here after IntAct's records for PubMed 23136403.

First the molecules themselves.
B1: Catenin alpha-3 (Homo sapiens), Q9UI47-1 (parent)
chain: MSAETPITLNIDPQDLQVQTFTVEKLLEPLIIQVTTLVNCPQNPSSRKKGRSKRASVLLASVEEATWNLLDKGEKIAQEATVLKDELTASLEEVRKESEALKVSAERFTDDPCFLPKREAVVQAARALLAAVTRLLILADMIDVMCLLQHVSAFQRTFESLKNVANKSDLQKTYQKLGKELENLDYLAFKRQQDLKSPNQRDEIAGARASLKENSPLLHSICSACLEHSDVASLKASKDTVCEEIQNALNVISNASQGIQNMTTPPEPQAATLGSALDELENLIVLNPLTVTEEEIRPSLEKRLEAIISGAALLADSSCTRDLHRERIIAECNAIRQALQDLLSEYMNNAGKKERSNTLNIALDNMCKKTRDLRRQLRKAIIDHVSDSFLDTTVPLLVLIEAAKNGREKEIKEYAAIFHEHTSRLVEVANLACSMSTNEDGIKIVKIAANHLETLCPQIINAALALAARPKSQAVKNTMEMYKRTWENHIHVLTEAVDDITSIDDFLAVSESHILEDVNKCIIALRDQDADNLDRAAGAIRGRAARVAHIVTGEMDSYEPGAYTEGVMRNVNFLTSTVIPEFVTQVNVALEALSKSSLNVLDDNQFVDISKKIYDTIHDIRCSVMMIRTPEELEDVSDLEEEHEVRSHTSIQTEGKTDRAKMTQLPEAEKEKIAEQVADFKKVKSKLDAEIEIWDDTSNDIIVLAKNMCMIMMEMTDFTRGKGPLKHTTDVIYAAKMISESGSRMDVLARQIANQCPDPSCKQDLLAYLEQIKFYSHQLKICSQVKAEIQNLGGELIMSALDSVTSLIQAAKNLMNAVVQTVKMSYIASTKIIRIQSPAGPRHPVVMWRMKAPAKKPLIKREKPEETCAAVRRGSAKKKIHPLQVMSEFRGRQIY
partner: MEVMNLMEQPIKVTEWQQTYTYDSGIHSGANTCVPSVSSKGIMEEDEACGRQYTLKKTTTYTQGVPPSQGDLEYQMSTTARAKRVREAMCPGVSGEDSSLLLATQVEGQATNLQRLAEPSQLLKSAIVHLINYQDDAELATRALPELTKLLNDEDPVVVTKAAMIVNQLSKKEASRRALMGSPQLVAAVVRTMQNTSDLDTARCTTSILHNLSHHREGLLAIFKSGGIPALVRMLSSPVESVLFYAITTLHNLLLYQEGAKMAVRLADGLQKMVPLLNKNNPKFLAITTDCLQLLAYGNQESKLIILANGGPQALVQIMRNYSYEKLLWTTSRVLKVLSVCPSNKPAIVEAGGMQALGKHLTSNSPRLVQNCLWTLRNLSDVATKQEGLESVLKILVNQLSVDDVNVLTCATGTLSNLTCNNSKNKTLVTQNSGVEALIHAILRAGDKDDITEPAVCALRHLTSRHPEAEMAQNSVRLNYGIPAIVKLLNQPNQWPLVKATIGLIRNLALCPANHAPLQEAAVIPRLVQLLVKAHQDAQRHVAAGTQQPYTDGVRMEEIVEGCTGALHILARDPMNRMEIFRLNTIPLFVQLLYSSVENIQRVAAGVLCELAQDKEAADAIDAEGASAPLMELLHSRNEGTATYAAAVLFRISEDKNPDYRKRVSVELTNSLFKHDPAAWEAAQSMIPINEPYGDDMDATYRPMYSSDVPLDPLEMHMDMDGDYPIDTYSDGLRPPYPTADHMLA
B2: Catenin alpha-3 (Homo sapiens), Q9UI47-1 (parent)
chain: B1 chain
partner: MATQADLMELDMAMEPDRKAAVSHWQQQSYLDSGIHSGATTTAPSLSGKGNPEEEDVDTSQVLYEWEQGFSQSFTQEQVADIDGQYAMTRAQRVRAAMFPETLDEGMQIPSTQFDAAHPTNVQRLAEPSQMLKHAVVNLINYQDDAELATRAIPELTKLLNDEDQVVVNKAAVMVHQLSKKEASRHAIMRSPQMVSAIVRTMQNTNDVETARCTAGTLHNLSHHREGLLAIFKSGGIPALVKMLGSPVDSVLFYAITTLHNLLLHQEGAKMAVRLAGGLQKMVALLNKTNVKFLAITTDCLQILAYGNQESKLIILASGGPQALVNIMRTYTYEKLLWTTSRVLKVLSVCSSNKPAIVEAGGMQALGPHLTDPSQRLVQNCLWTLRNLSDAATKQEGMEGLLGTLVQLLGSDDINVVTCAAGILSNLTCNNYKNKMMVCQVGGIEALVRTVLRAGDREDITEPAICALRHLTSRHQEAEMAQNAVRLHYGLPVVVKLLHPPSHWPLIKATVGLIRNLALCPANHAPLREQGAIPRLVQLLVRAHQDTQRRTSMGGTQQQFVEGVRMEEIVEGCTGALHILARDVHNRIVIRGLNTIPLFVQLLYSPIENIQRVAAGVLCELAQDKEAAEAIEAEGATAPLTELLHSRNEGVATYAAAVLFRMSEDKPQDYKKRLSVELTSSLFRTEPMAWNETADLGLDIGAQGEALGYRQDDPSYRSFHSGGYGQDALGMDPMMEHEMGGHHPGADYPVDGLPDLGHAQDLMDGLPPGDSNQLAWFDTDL
B3: Catenin alpha-3 (Homo sapiens), Q9UI47-1 (parent)
chain: B1 chain
partner: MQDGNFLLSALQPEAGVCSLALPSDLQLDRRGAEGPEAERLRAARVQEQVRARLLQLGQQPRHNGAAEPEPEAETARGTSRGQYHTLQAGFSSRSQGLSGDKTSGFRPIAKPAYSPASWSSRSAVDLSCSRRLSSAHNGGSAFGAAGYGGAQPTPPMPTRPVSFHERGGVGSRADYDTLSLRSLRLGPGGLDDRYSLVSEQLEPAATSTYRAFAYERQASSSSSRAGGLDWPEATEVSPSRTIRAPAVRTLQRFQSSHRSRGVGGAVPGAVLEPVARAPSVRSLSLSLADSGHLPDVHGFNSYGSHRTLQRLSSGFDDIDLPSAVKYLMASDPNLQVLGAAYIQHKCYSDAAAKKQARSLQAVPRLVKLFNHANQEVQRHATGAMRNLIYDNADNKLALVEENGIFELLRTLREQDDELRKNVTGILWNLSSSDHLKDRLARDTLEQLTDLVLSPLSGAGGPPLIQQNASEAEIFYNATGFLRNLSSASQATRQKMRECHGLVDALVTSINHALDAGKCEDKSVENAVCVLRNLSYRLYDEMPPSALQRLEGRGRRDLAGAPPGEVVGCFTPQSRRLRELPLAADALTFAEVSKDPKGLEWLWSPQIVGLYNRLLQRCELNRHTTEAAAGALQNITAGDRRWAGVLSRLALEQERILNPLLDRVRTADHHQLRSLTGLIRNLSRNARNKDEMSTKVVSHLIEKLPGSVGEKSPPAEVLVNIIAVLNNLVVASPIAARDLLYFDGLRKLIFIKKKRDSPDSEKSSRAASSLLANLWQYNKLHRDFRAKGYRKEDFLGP
B4: Catenin alpha-3 (Homo sapiens), Q9UI47-1 (parent)
chain: B1 chain
B5: Catenin alpha-3 (Homo sapiens), Q9UI47-1 (parent)
chain: B1 chain
partner: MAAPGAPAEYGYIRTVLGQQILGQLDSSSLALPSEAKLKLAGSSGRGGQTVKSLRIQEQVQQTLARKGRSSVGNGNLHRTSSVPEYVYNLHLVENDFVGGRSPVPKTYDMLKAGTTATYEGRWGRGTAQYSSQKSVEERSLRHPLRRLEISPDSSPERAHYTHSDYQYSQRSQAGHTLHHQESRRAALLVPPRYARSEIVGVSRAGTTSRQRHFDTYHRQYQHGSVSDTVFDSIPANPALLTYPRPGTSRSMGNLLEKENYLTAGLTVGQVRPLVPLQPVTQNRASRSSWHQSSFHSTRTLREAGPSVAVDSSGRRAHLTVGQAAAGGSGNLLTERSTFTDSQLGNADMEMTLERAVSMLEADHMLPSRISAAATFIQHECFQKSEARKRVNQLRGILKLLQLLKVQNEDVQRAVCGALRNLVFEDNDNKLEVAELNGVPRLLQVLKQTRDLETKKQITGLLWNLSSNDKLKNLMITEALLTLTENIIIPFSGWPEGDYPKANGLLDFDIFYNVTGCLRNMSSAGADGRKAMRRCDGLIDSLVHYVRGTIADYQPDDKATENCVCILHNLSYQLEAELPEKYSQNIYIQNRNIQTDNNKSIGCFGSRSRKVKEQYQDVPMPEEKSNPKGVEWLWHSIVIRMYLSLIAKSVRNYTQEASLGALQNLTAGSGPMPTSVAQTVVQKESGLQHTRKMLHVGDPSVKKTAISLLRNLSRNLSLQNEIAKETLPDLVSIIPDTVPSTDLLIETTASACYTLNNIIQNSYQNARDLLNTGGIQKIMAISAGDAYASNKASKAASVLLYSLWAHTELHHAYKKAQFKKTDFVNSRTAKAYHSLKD

The first test covers variants of B1. The following applies: with plak_human JUP.
Consider V94D, for which the “effect of a mutation on the interaction” value is given as “disrupting interaction strength”.

In a further test the parent is B2. The note with it: with ctnb1_rat Ctnnb1, Q9WU82.
As to V94D, the “effect of a mutation on the interaction” value is reported as “with no effect”.

A further test covers variants of B3. The following applies: with pkp3_human PKP3, Q9Y446.
Turning to V94D, the “effect of a mutation on the interaction” value is on record as “with no effect”.

Variants of B4 are the subject of the next test. The note with it: with ctnb1_human CTNNB1, P35222.
V94D: the “effect of a mutation on the interaction” value is “disrupting interaction strength”.

Variants of B4 are the subject of the next test. The following applies: with ctnb1_human CTNNB1, P35222. The source holds these as a separate data set.
As to V94D, the “effect of a mutation on the interaction” value was “decreasing interaction strength”.

Another test covers variants of B4. The note with it: with ctnb1_mouse Ctnnb1, Q02248.
With V94D, the “effect of a mutation on the interaction” value is listed as “disrupting interaction strength”.

The variants in another test derive from B5. The note with it: with PKP2, Q99959-2.
Turning to V94D, the “effect of a mutation on the interaction” value is given as “with no effect”.
